The subject of one series is cells. As to the kind of experiment: Peptide localization in cells (anti-phospho-Tyr immunofluorescence). It counts as cell-based. How it is done: To examine peptide localization, cells were treated with P-1 or P-2 peptide for 4 hours, stained with anti-phospho-Tyr and rhodamine-conjugated antibody, and observed with a confocal microscope. A Z-scan was carried out to make images in each 0.15 μm section from the top of the cells to the bottom. […] Cells treated with P-1 peptide were not stained by anti-phospho-Tyr antibody, confirming the specifity of the immunofluoroscence staining. In a time course analysis, cells were serum-starved for 24 hours, and incubated with peptide (5 μM) for various time periods. Cells were stained by anti-phosphoro-Tyr antibody and analyzed under an immunofluoroscence microscope. Cells treated with P-2 peptide retained phospho-peptide for up to 24 hrs. In a dose response experiment, cells were starved in serum-free medium for 24 hours, cultured with peptide at various concentrations, and stained with anti-phospho-tyrosine antibody (4G10) to detect the peptide containing phospho-tyrosine residue (red) and by Hoechst 33258 for nuclei (blue). P-2 peptide was detected at 0.5 μM and 1 μM in cells .

In series [1] the target is GST-Shc PTB domain fusion protein (human) (UniProt P29353). As to the kind of experiment: SPR (Biacore) competition, Table 1.
Chain of GST-Shc PTB domain fusion protein (human) (P29353 111-319 limits assumed): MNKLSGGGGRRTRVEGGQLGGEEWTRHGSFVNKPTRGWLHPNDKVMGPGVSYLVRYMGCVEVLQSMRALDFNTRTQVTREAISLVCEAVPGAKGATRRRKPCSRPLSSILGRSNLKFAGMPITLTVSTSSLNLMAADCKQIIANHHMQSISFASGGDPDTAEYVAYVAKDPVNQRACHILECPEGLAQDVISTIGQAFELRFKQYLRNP
Series [2] has the same target. As to the kind of experiment: not stated in Table 2; the same number as the IC50 of Table 1.
The target is the same in series [3]. Put plainly: SPR (Biacore) competition, Table 1. This is another data set of the same source.
For series [4] the target is unchanged. Put plainly: not stated in Table 2; presumably as the IC50 of Table 1.
Series [5] has the same target. As to the kind of experiment: competition with EGF-R for GST-ShcB beads, dose response, anti-phospho-Tyr blot.

Square brackets hold non-standard residues; d marks the D form. Ends that are not written are not given here. pY = N[C@@H](Cc1ccc(OP(=O)(O)O)cc1)C(=O)O

Take “RQIKIWFQNRRMKWKKHIIENPQYFSD [P-1, RQIKIWFQNRRMKWKK-HIIENPQYFSD]”: in the series on cells, the “peptide localization in cells” value was “not stained”. In series [1], “Wt NGF receptor phosphopeptide His-Ile-Ile-Glu-Asn-Pro-Gln-P.Tyr-Phe-Ser-Asp” showed a fold increase of the affinity against the peptide with Ala at -2 of 10 fold. Besides, the value printed beside the sequence without a heading in series [2] was determined as 175 nM.

B1: Ala-6, Ala-5 NGF receptor peptide H-A-A-E-N-P-Q-p.Y-F-S-D (peptide)
peptide: HAAENPQ[pY]FSD
The molecule B1 yielded a fold lower affinity against a phosphopeptide with an Ile at either position -6 or -5 in series [3] of 3 fold.

B2: Trk wild type truncated phosphopeptide IENPQpYFSD (peptide)
peptide: IENPQ[pY]FSD
With B2, the value printed beside the sequence without a heading in series [4] amounted to 4 µM.

B3: C-1, Cyclo-(IENPQpYFSPG) (peptide)
peptide: cyclo(IENPQ[pY]FSPG)
SMILES: CC[C@H](C)[C@@H]1NC(=O)CNC(=O)[C@@H]2CCCN2C(=O)[C@H](CO)NC(=O)[C@H](Cc2ccccc2)NC(=O)[C@H](Cc2ccc(OP(=O)(O)O)cc2)NC(=O)[C@H](CCC(N)=O)NC(=O)[C@@H]2CCCN2C(=O)[C@H](CC(N)=O)NC(=O)[C@H](CCC(=O)O)NC1=O
The molecule B3 showed a percent inhibition at 100 µM in series [5] of 50%.
